Measurements as given in patent US20240309080A1 (CHIA TAI TIANQING PHARMACEUTICAL GROUP, published 2024).
Where a chain is given by its changes, count along the chain named. Like-named read-outs stand apart in the source and are kept apart here. Blank lines part the entries; values can stand above or below the binder they belong to.

Experiments:
Assay in all cases: cell-based or functional assay
[1] = biological target: T1, recombinant human TSLP-his (human, UniProt Q969D9 29-159, biotin-labeled in the capture ELISA)
[2] = biological target: T1, recombinant human TSLP-his; remark: listed apart in the source
[3] = biological target: T1, recombinant human TSLP-his; remark: listed apart in the source
[4] = biological target: T1, recombinant human TSLP-his; remark: listed apart in the source
[5] = biological target: T1, recombinant human TSLP-his; remark: listed apart in the source
[6] = biological target: T1, recombinant human TSLP-his; remark: listed apart in the source

B1: Chimeric 1C5F12E9 (antibody, V domains shown)
VH: QVQLQQPGTELVKPGASVKMSCKASGYTFTTYWMHWVKQRPGQGLEWIGVIDPSDSDTTYNQKFKGKATLTVDTSSSTAYMQLSSLTSEDSAVYYCTRSLDGYYDYWGQGTTLTVSS
VL: DIQMTQSPASLSASVGETVTITCRPTENIYSYLAWYQQKQGKSPHLLVYFARTLAEGVPSRFSGSGSGTQFSLKINSLQPEDFGIYYCQHHYGTPWTFGGGTKLEIK
IC50, TSLP-his dependent survival and proliferation of BAF3-3E6 cells expressing TSLPR/IL7R (Cell Titer-Glo, RLU) [1]: 0.521 pM
IC50, TSLP-his dependent survival and proliferation of BAF3-3E6 cells expressing TSLPR/IL7R (Cell Titer-Glo, RLU) [2]: 1.37 pM

IC50, STAT5-luciferase reporter in HEK293T-TSLPR/IL7R/STAT5-Luc cells stimulated with human TSLP-his (RLU) [4]: 0.0118 µg/mL
B2: hu1C5F12E9-V8 (IgG1) (antibody)
heavy: not shown
light: DIQMTQSPSSLSASVGDRVTITCRPTENIYSYLAWYQQKPGKAPKLLIYFARTLAEGVPSRFSGSGSGTDFTLTISSLQPEDFATYYCQHHYGTPWTFGGGTKVEIKRTVAAPSVFIFPPSDEQLKSGTASVVCLLNNFYPREAKVQWKVDNALQSGNSQESVTEQDSKDSTYSLSSTLTLSKADYEKHKVYACEVTHQGLSSPVTKSFNRGEC
IC50, TSLP-his dependent survival and proliferation of BAF3-3E6 cells expressing TSLPR/IL7R (RLU) [3]: 4.32 pM

IC50, STAT5-luciferase reporter in HEK293T-TSLPR/IL7R/STAT5-Luc cells stimulated with human TSLP-his (RLU) [4]: ~0.0162 µg/mL
B3: hu1C5F12E9-V8 (IgG4) (antibody)
heavy: not shown
light: B2 light
IC50, TSLP-his dependent survival and proliferation of BAF3-3E6 cells expressing TSLPR/IL7R (Cell Titer-Glo, RLU) [1]: 1.68 pM
IC50, TSLP-his dependent survival and proliferation of BAF3-3E6 cells expressing TSLPR/IL7R (RLU) [3]: 14.7 pM

IC50, STAT5-luciferase reporter in HEK293T-TSLPR/IL7R/STAT5-Luc cells stimulated with human TSLP-his (RLU) [6]: 0.025 µg/mL
B4: hu1C5F12E9-V14 (IgG4) (antibody)
heavy: not shown
light: B2 light with A43S
IC50, TSLP-his dependent survival and proliferation of BAF3-3E6 cells expressing TSLPR/IL7R (Cell Titer-Glo, RLU) [2]: 5.78 pM
IC50, TSLP-his dependent survival and proliferation of BAF3-3E6 cells expressing TSLPR/IL7R (RLU) [5]: 8.36 pM

IC50, STAT5-luciferase reporter in HEK293T-TSLPR/IL7R/STAT5-Luc cells stimulated with human TSLP-his (RLU) [6]: 0.022 µg/mL
B5: hu1C5F12E9-V14 (IgG1) (antibody)
heavy: not shown
light: B2 light with A43S
IC50, TSLP-his dependent survival and proliferation of BAF3-3E6 cells expressing TSLPR/IL7R (RLU) [5]: 6.73 pM
